B1: CDR-H1 (15 amino acid peptide containing CDR1 of the mAb 8D4 H chain) (peptide)
peptide: GYSFTDYVLIWVKQS
B2: CDR-H2 (17 amino acid peptide, CDR2 of the mAb 8D4 H chain) (peptide)
peptide: NSNPYYGRTSYNLKFKG
B3: CDR-H1-7 (7 amino acid peptide: the 5 residues of H chain CDR1 with one residue left at each end) (peptide)
peptide: TDYVLIW

Biological target: HCV serine protease Cpro-2 (NS3 protein, p70) (C型肝炎ウイルス (株名 HCV-J))
Experiment: cell-based or functional assay

Question: How did the “IC50, HCVプロテアーゼ阻害活性 (組換え基質MBP-NS5A/5B-ADK)” value (from here on “IC50, HCVプロテアーゼ阻害活性”) turn out when B1 was run?
Answer: 20.8 µM

Question: Which “IC50, HCVプロテアーゼ阻害活性” value does the source give for B2 here?
Answer: 229 µM

Question: B3 was tested. Which “IC50, HCVプロテアーゼ阻害活性” value did it give?
Answer: 165 µM

Source: JPH11127861A (dated 1999)
